# Results taken from the supplement of paper PMC10567573.
# Test: protein stability index of a GFP-peptide fusion (GPS, HEK-293T) (PSI 1-6); higher = more stable
# 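Further: lentivirally expressed fusions sorted by FACS into six bins by GFP to DsRed ratio, PSI derived from sequencing read proportions per bin multiplied by bin number.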
protein,measurement,setting,value
YPHCTGISQQDPESDSQGQGNGLF [FAM164C WT],protein stability index,"parent: IOH5453_15, c terminus: a fixed tail appended",3.84
KPIVPTDGKRVIVVFHCEFSSERG,protein stability index,"parent: IOH5852_70, c terminus: a fixed tail appended",2.59
MASSSTVPLGFHYETKYVVLSYLG,protein stability index,"parent: IOH5956_1, c terminus: a fixed tail appended",2.43
CSECGESFSRSSRLMSHQRTHTG,protein stability index,"parent: IOH6312_114, c terminus: native",2.98
YPCVLATEGFTSGRHYWEVEVGDK,protein stability index,"parent: IOH5913_59, c terminus: a fixed tail appended",1.8
HLTRHQRTHTGEKPYKCTLCGENF,protein stability index,"parent: IOH6312_99, c terminus: a fixed tail appended",2.9
FVKILKDFPEEDDPTNWLRCYYYE,protein stability index,"parent: IOH5398_38, c terminus: a fixed tail appended",2.09
FGPDSKSSALACTLPTLPAKVYVG,protein stability index,"parent: IOH5398_13, c terminus: a fixed tail appended",2.21
ALLHQAETLQPSVWFGGREHVLMF,protein stability index,"parent: IOH5167_67, c terminus: a fixed tail appended",2.09
RPDTGDDAAGHGFCYCAGSHKRKR,protein stability index,"parent: IOH5876_6, c terminus: a fixed tail appended",2.92
PEASHLRFRRFRFQEAAGPREALS,protein stability index,"parent: IOH6312_7, c terminus: a fixed tail appended",2.65
FGGNPRFLSLHRAHLGEEAHKCLE,protein stability index,"parent: IOH6312_70, c terminus: a fixed tail appended",1.85
RTHTGEKPYKCTLCGENFSHRSNL,protein stability index,"parent: IOH6312_100, c terminus: a fixed tail appended",2.17
VVTSAREHIYDLRSLENYHFVDEH [CLINT1 WT],protein stability index,"parent: IOH5634_17, c terminus: a fixed tail appended",2.76
QRTHTGEKPYKCPECGEIFAHSSN,protein stability index,"parent: IOH6312_81, c terminus: a fixed tail appended",3.1
YNPSFEDHQTLLSAAHEVELQRQK,protein stability index,"parent: IOH6410_42, c terminus: a fixed tail appended",3.61
FQAKKIPIVSSLADPLDTPPDSKE,protein stability index,"parent: IOH5807_78, c terminus: a fixed tail appended",3.78
FMEKRNQWLVSQLSAASPDTGHDS,protein stability index,"parent: IOH5394_23, c terminus: a fixed tail appended",2.4
FAHSSNLLRHQRIHTGERPYKCPE,protein stability index,"parent: IOH6312_84, c terminus: a fixed tail appended",2.34
MNLHVYISEHEHFTDFNATSALFW,protein stability index,"parent: IOH5653_18, c terminus: a fixed tail appended",2.74
RETASLKLLPHQPRIVEMKKGSNG,protein stability index,"parent: IOH5807_39, c terminus: a fixed tail appended",3.37
LGCYAVYSLLYLEHKGWYSWVLSM,protein stability index,"parent: IOH5653_82, c terminus: a fixed tail appended",2.95
KIANLGSCNDSKLEFRSFWELIGE [S100A14 WT],protein stability index,"parent: IOH5597_12, c terminus: a fixed tail appended",2.01
CKACITRWWEDLERDFPCPVCRKT,protein stability index,"parent: IOH5913_9, c terminus: a fixed tail appended",3.85
FGGGSTRGGSLLAGGGGFGGGSLS,protein stability index,"parent: IOH5303_3, c terminus: a fixed tail appended",1.81
QLIDPDENKENEAFEFKKPVRPVS,protein stability index,"parent: IOH5852_23, c terminus: a fixed tail appended",3.49
SCTIIFLASIFQLAMWTTALLHQA,protein stability index,"parent: IOH5167_64, c terminus: a fixed tail appended",2.71
KKFRTKSRTWAGEKSKREMYSRLK,protein stability index,"parent: IOH5852_84, c terminus: a fixed tail appended",2.82
LLRHQRIHTGERPYKCPECGKSFS,protein stability index,"parent: IOH6312_85, c terminus: a fixed tail appended",2.03
FCYCAGSHKRKRSSGSFCYCHPDS,protein stability index,"parent: IOH5876_8, c terminus: a fixed tail appended",1.91
VPGTQVGQGGKLWDPSVQSCKEGL,protein stability index,"parent: IOH6312_45, c terminus: a fixed tail appended",4.2
YGHDYPRAAYQQVIQPALPGQPLP,protein stability index,"parent: IOH5394_47, c terminus: a fixed tail appended",1.96
KQGSMNFRFIPVLFPNAKKEHVPT,protein stability index,"parent: IOH5394_84, c terminus: a fixed tail appended",1.99
PGQPLPGASVRGLHPVQKVILNYP,protein stability index,"parent: IOH5394_50, c terminus: a fixed tail appended",3.05
APWNYHYHCPGSPDHQVPYGHDYP,protein stability index,"parent: IOH5394_44, c terminus: a fixed tail appended",1.94
ERDFPCPVCRKTSRYRSLRPNRQL,protein stability index,"parent: IOH5913_11, c terminus: a fixed tail appended",2.25
KEHVPTWLQNTHVYSWPKNKKNIL,protein stability index,"parent: IOH5394_87, c terminus: a fixed tail appended",2.59
PRPPSNPPARGTLKTSNLPEELRK,protein stability index,"parent: IOH5394_64, c terminus: a fixed tail appended",4.55
TVAGKHQDLKYISPEIMASVLNGK,protein stability index,"parent: IOH5852_59, c terminus: a fixed tail appended",3.04
KPYKCTLCGENFSHRSNLIRHQRI,protein stability index,"parent: IOH6312_101, c terminus: a fixed tail appended",2.32
QTSAFARQPRDELERVRVSCTIIF,protein stability index,"parent: IOH5167_61, c terminus: a fixed tail appended",2.28
YIIQQGGWGTVFSLESEEEEYPGI,protein stability index,"parent: IOH5956_33, c terminus: a fixed tail appended",1.93
LARRRRRRQARREAEADKPRRLGR,protein stability index,"parent: IOH6410_65, c terminus: a fixed tail appended",4.75
LDYTADEDGVWYSVAPMNVRRGLA,protein stability index,"parent: IOH6063_59, c terminus: a fixed tail appended",1.98
SNFHINVEESVDGQVVSSHKREI,protein stability index,"parent: IOH5303_75, c terminus: native",2.11
REESLPNLLQYVRMPLLTPRYITD,protein stability index,"parent: IOH6063_36, c terminus: a fixed tail appended",2.48
DPQSGELPSERWNPTQNVRTILLS [UBE2R2 WT],protein stability index,"parent: IOH5652_18, c terminus: a fixed tail appended",3.45
FQRRNMIEPRERAKFKRKYKVKLV,protein stability index,"parent: IOH6410_75, c terminus: a fixed tail appended",2.25
SMTTPRCYVGATVLRGRLYAIAGY,protein stability index,"parent: IOH6063_85, c terminus: a fixed tail appended",2.41
QPKKLHLCPLCGKNFSNNSNLIRH,protein stability index,"parent: IOH6312_63, c terminus: a fixed tail appended",2.55
EKPYKCPECGEIFAHSSNLLRHQR,protein stability index,"parent: IOH6312_82, c terminus: a fixed tail appended",2.43
QSLDQEILLKVKTEIEEELKSLDK,protein stability index,"parent: IOH5956_9, c terminus: a fixed tail appended",4.89
SVICRSLPEGMGPGESGQPPPAC [ALKBH7 WT],protein stability index,"parent: IOH5568_34, c terminus: native",1.99
